Test results from the DeepSol protein solubility set.

Assay: soluble on expression in E. coli; label from the status in PepcDB or PDB records

| Sequence | soluble on expression in E. coli |
| --- | --- |
| MAHHHHHHMMNKNDITIDENNKYIFRASSFYNKDGLLIKSYSWEVREPLGIIILVHGLASHIRFGFLKQNAKIVNNDHAVLIDGDNYYIYEGSWIEKLNKNGYSVYGLDLQGHGESDGYQNLKLHIKDYDDYIYDLIDFIKSVYESIISKKEKKQMYIRDNDIIETVPIYLVGYSMGANIILRALQLLNKSNDNLISKLNIKAFISLAGMISIKNIGSIDSLKYKYLFLPIIKMLSYVCPTYRLRKKHSGFKRFPYINDLMNFDKLRYKKGMTNKLAYEVIKSVYILKKYINDIPQNVPILFIHSRHDSVCAYEEVLSFYNNLYNTNKEIYTLENMDHVVTLEPENEQALNKMLTWIKKCE | soluble |
| MHHHHHHENLYFQSNAMGSTRPIDGLTDEDIREILTRYKKIALVGASPKPERDANIVMKYLLEHGYDVYPVNPNYEEVLGRKCYPSVLDIPDKIEVVDLFVDPAKAWRFVVYAIKKGAKVVWFQYNTYYPLAARQAKEAGLIIVANRCMMREHERLLGEK | soluble |
| MRVLVLCTHNSARSQMAEAWLKHFARELGVDLEVHSAGTEKAFVKEEAKRVMAEVGLDLSGHFSKTLLEVPDPWDFGLVLTVCDQAKEACPAYPARTERRHVSFPDPTGKPLEEWRKVRDALGRMARFLVEALKEGRLPSDEELRQAARL | soluble |
| MAYETFAFVYDEVMDESLYQKWLDFSNRHLPQGTQQILEMACGTGALAVDFAKSGYDVTALDLSEEMLMIASERAFEEEVPVQFVQGNMLDLSEVGQYQAITCFSDSLCYMANRQEVQQVFDEVYQALEEEGTFIFDVHSTYKIDSVFPEYSYHYQTEEFAFLWDSYAGEKEHSIEHFLTFFVKEQETDEHFVRYDELHQERTYSLDNYLRMLESAGFMNVKVYADFTDEAPTETSERWFFVCQRD | not soluble |
| DPSVFSLPDSKLPGDKEFVPWQQDLDDSVKPTQQARPTVIRWSEGGKEVFISGSFNNWSTKIPLIKSHNDFVAILDLPEGEHQYKFFVDGQWVHDPSEPVVTSQLGTINNLIHVKKSDFEVFDALKLDSMESSETSCRV | not soluble |
| GPGSMRKFCHFMANCWNSARSHATYGAVPLTHSQVTSVYATDGGKVDELGLLELVEERIFSWKLNKWEMRIPPNLPNDQKELIRQEQENLKQILSGWRKCFGALNADILQISSLTGVPKEVVREKNRTWLQEEVAKLRWMGEVNKAALLRDAFMRLEAFGSRDFMFMERLCCIYGLARQGTFDEAFTNYITEDPVTNDIFVDERNPFKELVAHIVRNYSQIDIIYDFLGFNYSEGYRSSLRRYMEYLQCKTAENVRASGRLVTGDKGEHNILFDYCVSRESLVSGDSCQGIIDFLYINGNDVTLIIIASDNPWLRNRQLPHRRQMEGIARRVCFVLGIPPSEVRIRNLLLPPTYLDKGSIVRLNDIVFRLSNEQSNLLIPWLTNYNKELDPKDVDYTALAKTTNEEEWLTL | not soluble |
| MKEYRLTDWLPTTKKEVELRGWDELDVILFSGDAYVDHPSFGAAVIGRILEAEGLKVAIIPQPNWRDDLRDFRKLGRPRLFFGISAGSMDSMVNKYTANKRLRSEDAYTPDGRPDMRPEYPSIVYSQILKRLYPDVPVILGSIEASLRRLSHYDYWQDKVQKSILCDSGADLLIYGMGEKPIVELTRKMKELLPAEDASLTAGELKKIAGTIPQTAYLCRATEWTPAADDIQLYSHEECLADKKKQASNFRHIEEESNKYAASRITQEVDNKVVVVNPPYPPMSQEELDHSYDLPYTRLPHPKYKGKRIPAYDMIKFSVNIHRGCFGGCAFCTISAHQGKFIVSRSKKSILNEVKEVMQLPDFKGYLSDLGGPSANMYQMKGKDEAICKKCKRPSCIHPKVCPNLNSDHCPLLDIYKAVDAIPGIKKSFIGSGVRYDLLLHQSKDAATNRSTAEYTRELIVNHVSGRLKVAPEHTSDRVLSIMRKPSFEQFETFKKIFDRINREENLRQQLIPYFISSHPGCKEEDMAELAVITKRLDFHLEQVQDFTPTPMTVATEAWYSGFHPYTLEPVFSAKTQREKLAQRQFFFWYKPEERKNILNELRRIGRQDLIDKLYGKRNK | not soluble |
| MGSDKIHHHHHHMKKAHVIVVGNEKGGTGKSTISMHLIVSLLDKGLSVGSIDIDARQATLSRYIGNRAARQDRAELNLPIPEHIPIPPSGDAQADCARLDEVFKDFAARHDVVVIDTPGSDHPMSRLGHSFADTLVTPLNDSLVDLDVLALVEPGTMKIRRPSHYAEMVWETKKTRAMRGEKAVVDWIVLRNRLSNLDARNKRDMEKLLAELSKRVGFRVIPGLGERVIYRSMFLEGLTLVDLKKKPLGFDFNMSHVAARQELRTLVDAIGLGLPATA | not soluble |
| MAHHHHHHMKVDSLLSPRSAFSTENDPCGSVESVANDVASASDVVVAYPQPGKRWSRIIAGPELVGMSLKENQIKDGKALCIYGHCFDDGIIDYITNEVLPEARVLTKVEIAETKFSSAGMKILLRALWTNSPCEQMEELLLHDVHLHFEETLQLKEVIMKNRKCLRRLVLQRCHMDDSAAEPIVQAISHCEQLREVNFLDNNIVHALAIPTEREDIFPPTLQIFDISGNRIEPKHFTGLGNALRRCMANLHEVYLARCCVTESGLKTLLCGGLYNSQVLSVLNVSAGRLLHTAGKVLSSVISECPNLQRVYMQDNLLDVEGAAQIALVIPYAKKLTVLGMGRCHLGGRGARYIAEAVKQSASLRELDLSGNGVTDEDVHRICACNDDASFRLSYLDLSDNPLTEDCRCSLETLLEHQKDNSCIVVVRGTGLAVVSSYMEYHNKPTPG | not soluble |
| MGKLNLYQMKKVEIIVRGEDLDFVLDLLEKAGVKGYTIIHNLSGKGSHGFHEGHLLFNEEDVLDMVISVMPEEKVEAILEGLTPFFNKHSGVVFVSDVQVSRLEKFKNG | not soluble |
| MSLTRISELPPQIRQEIEQLDQYIQKQVQISHHLKADTIDHDELIDSIPRDVAYLLKSESATSQYLKQDLKKISSFKSLIDEDLLDTQTFSVLLQQLLTPGSKISSNDLDKFFQKKIHLYEKKLEDYCRILSDIETAVNGIDTDLFGAPNNPNSTAITADLGSSEAENLLQLKTGLAAIVSTVIEEFTLFMDIAERIAVLHQKTKTLASLSEGHHHHHH | soluble |
| MGSDKIHHHHHHMDFMTALDIGASALSAERTSMNITSMNLANAKTTRTIGGGPYRRKAVVMAATEVDDPFSKHMQSALDRELRGVRVQHIVRDNRPFRQVYEPGHPDADANGYVKYPDINVVEEMANLMTSQRGYQASVSTIEAVKSMYTKALEIGRS | not soluble |
| MTLKLTYFDIRGLAEPIRLLLNDQEIPFEDNRISREEWAEMKSTMIFAQLPCLHIGTETIVQSAAILRHLGRIYGLNGSTESETSFIDMFSEGLRDLRTKYFTMIKTDYEDGKEAYITETLPGELLRIEKLFCTFNNGENFVSGDKLSYADYALFELLDIHLILTPTALNGTPALKRFHGRFAERPNMRLYLNKRAELNPFVSGNGKQ | not soluble |
| MGSDKIHHHHHHMMRENLAYLEPPLRIAILSQGPQLYSTKRLVEAAQARGHDVHIINPLKCYMNINMRQPSIHIAGKELPQFDAVIPRIGASITFYGSAVLRQFEMMGVYTINDSVGISRSRDKLRSMQLLSRKGIGLPITGFANKPSDIPDLIDMVGGAPLVVKLLEGTQGIGVVLAETRKAAESVLEAFMGLKANIMVQEYIKEANGADIRCFVLGDKVIAAMKRQAKAGEFRSNLHRGGTATLVKLSPEERTTAIRAAKTMGLSLAGVDLLRSNHGPVVMEVNSSPGLEGIEAATQKDVANAIIEFIEKNANKAKS | not soluble |
| GANPTTAETLDATRRVDDATVAIRCAINNLIVELIRGTGSYNRSSFESSSGLVWTSGPAGEGSYSITTPSQFVFLSSAWADPIELINLCTNALGNQFQTQQARTVVQRQFSEVWKPSPQVTVRFPDSDFKVYRYNAVLDPLVTALLGAFDTRNRIIEVENQ | soluble |
| MNNYLRKLVEGQHLTEEEMYKAGLLLLNENILESEIAAFLVLLKAKGETAEEIYGLVRALREKALPFSNHIQGAMDNCGTGGDGAQTFNISTTSAFVLAGAGVKVAKHGNRAVSSKTGSADLLEELGVNISSTPNEIDYLLEHVGIAFLFAPAMHPALKRIMKIRKELNVPTIFNLIGPLTNPVNLETQFVGIYKRDMLLPVAQVLQKLGRKQALVVNGSGFLDEASLQGENHVVILKDNEIVETSIEPEKYGFSIVKNEEIRGGNSKENAKITLGVLSGEKSVYRDTVLFNAGLALFANGKAKTIEEGITLAAHSIDSGKALAKLNLLIAASNEELERVN | not soluble |
